Experimental data as given in patent US20240124536A1, “BASE EDITING OF TRANSTHYRETIN GENE” (Beam Therapeutics Inc., priority 2021, published 2024).
Strand notation (5' to 3'): a small letter for the sugar, then the base; units joined by * are phosphorothioate-linked, units joined directly phosphodiester-linked; [ ] holds rarer units or linkages, { } end groups; capitals alone tell only the bases. m = 2'-O-methyl; r = 2'-OH (RNA)

How the values were obtained:
[1] = tested on: cynomolgus monkey TTR gene; test: Editing activity in cyno primary hepatocytes (gRNA + ABE8.8 mRNA transfection, NGS); assay type: cell-based; details: for Cyno hepatocytes - Editing %, 156.25: 156.25 ng/RNA/mL; for Cyno hepatocytes - Editing %, 312.5: 312.5 ng/RNA/mL; for Cyno hepatocytes - Editing %, 625: 625 ng/RNA/mL; for Cyno hepatocytes - Editing %, 1250: 1250 ng/RNA/mL; for Cyno hepatocytes - Editing %, 2500: 2500 ng/RNA/mL; for Cyno hepatocytes - Editing %, 5000: 5000 ng/RNA/mL; for editing activity in cynomolgus primary hepatocytes (in words): ABE8.8 mRNA co-transfection
Description: (§1) The mRNA, and corresponding amino acid, sequence of the ABE8.8 (MA004) used in shown below in Table 11. Three days after transfection, genomic DNA was harvested from the hepatocytes, and assessed for base editing with next-generation sequencing of PCR amplicons generated around the target splice site. […] See FIGS. 5A-5C, FIG. 6, and Tables 2-3.

human TTR gene = test: Editing activity in human primary hepatocytes (gRNA + ABE8.8 mRNA co-transfection, NGS of PCR amplicons); assay type: cell-based; details: for Human hepatocytes - Editing %, 625, rep 1 / Human hepatocytes - Editing %, 625, rep 2: 625 ng/RNA/mL; for Human hepatocytes - Editing %, 1250, rep 1 / Human hepatocytes - Editing %, 1250, rep 2: 1250 ng/RNA/mL; for Human hepatocytes - Editing %, 2500, rep 1 / Human hepatocytes - Editing %, 2500, rep 2: 2500 ng/RNA/mL; for editing activity in human primary hepatocytes (in words): ABE8.8 mRNA co-transfection
Description: With this example, gRNA sequences were identified that permit ABE8.8 (and other ABE variants containing Streptococcus pyogenes Cas9, such as ABE7.10, or another Cas protein that can use the NGG PAM) to either: 1) disrupt the start codon, or 2) disrupt splice sites, whether donors or acceptors, via A→G editing within its editing window (roughly positions 4 to 7 in the 20-nt protospacer region of DNA). Five sequences were identified throughout the human TTR gene (Table 1). gRNAs were synthesized matching each of the protospacer sequences and otherwise conforming to the standard 100-nt Streptococcus pyogenes CRISPR gRNA sequence, with each gRNA molecule having a minimal degree of chemical modifications (specified in Table 1).
as §1

TTR on-target site = test: Off-target validation in human primary hepatocytes: editing at the on-target site; assay type: cell-based; details: for on-target site editing efficiency (in words): treated vs control, human primary hepatocytes
Description: (§2) Several candidate off-target sites were analyzed for off-target editing in human primary hepatocytes.

[2] = tested on: potential off-target candidate sites
Description: With a view towards establishing the safety of a base-editing therapy knocking down of TTR in the human liver in vivo, off-target mutagenesis analysis is assessed in primary human hepatocytes. […] The in vitro biochemical assay ONE-seq was used to generate a list of candidate off-target sites and to determine the propensity of a ribonucleoprotein comprising the ABE8.8 base editor protein and each of the three protospacer guides sequences (GA457, GA460, and GA461) to cleave oligonucleotides in a library.
For human ONE-seq libraries, the reference human genome (GRCh38, Ensembl v98, chromosomes ftp://ftp.ensembl.org/pub/release-98/fasta/homo_sapiens/dna/Homo_sapiens.GRCh38.dna.chromosome.{1-22,X,Y,MT}.fa and ftp://ftp.ensembl.org/pub/release-98/fasta/homo_sapiens/dna/Homo_sapiens.GRCh38.dna.nonchromosomal.fa), was searched for potential off-target sites with up to 6 mismatches to the protospacer sequence above, and sites with up to 4 mismatches plus up to 2 DNA or RNA bulges, using Cas-Designer v1.2 (http://www.rgenome.net/cas-designer/).
For each site, the total number of edited reads was normalized to the total number of edited reads assigned to the on-target site, and this ratio defines the ONE-seq score for the site. Sites were ranked by ONE-seq score, and those with a score equal to or larger than 0.001, were selected for validation. A score equal to or larger than 0.001 encompasses sites that have down to 1000-fold less editing activity in the biochemical assay compared to editing of the on-target site. This threshold is based on the premise that in cells, if there is 10000 on-target editing, 1/1000-fold less editing activity would translate to % 0.1% off-target editing, which falls below the lower limit of detection of editing by NGS.
as §2

B1: GA458: Cyno TTR guide RNA, cynomolgus equivalent of GA457, spacer GCCAUCCUGCCAAGAACGAG, gRNA SEQ ID NO: 29 (nucleic acid)
guide: mG*mC*mC*rArUrCrCrUrGrCrCrArArGrArArCrGrArGrGrUrUrUrUrArGrArGrCrUrArGrArArArUrArGrCrArArGrUrUrArArArArUrArArGrGrCrUrArGrUrCrCrGrUrUrArUrCrArArCrUrUrGrArArArArArGrUrGrGrCrArCrCrGrArGrUrCrGrGrUrGrCrU*mU*mU*mU
[1]
  Cyno hepatocytes - Editing %, 156.25: 6.06%
  Cyno hepatocytes - Editing %, 312.5: 10.65%
  Cyno hepatocytes - Editing %, 625: 16.07%
  Cyno hepatocytes - Editing %, 1250: 22.74%
  Cyno hepatocytes - Editing %, 2500: 27.25%
  Cyno hepatocytes - Editing %, 5000: 35.91%
  editing activity in cynomolgus primary hepatocytes (in words): high editing activity

B2: GA459: Human TTR guide RNA, spacer GCAACUUACCCAGAGGCAAA, gRNA SEQ ID NO: 13 (nucleic acid)
guide: GCAACTTACCCAGAGGCAAAGTTTTAGAGCTAGAAATAGCAAGTTAAAATAAGGCTAGTCCGTTATCAACTTGAAAAAGTGGCACCGAGTCGGTGCTTTT
modifications: chemistry not given here
Human TTR gene
  Human hepatocytes - Editing %, 625, rep 1: 3.79%
  Human hepatocytes - Editing %, 625, rep 2: 3.89%
  Human hepatocytes - Editing %, 1250, rep 1: 5.46%
  Human hepatocytes - Editing %, 1250, rep 2: 6.15%
  Human hepatocytes - Editing %, 2500, rep 1: 8.5%
  Human hepatocytes - Editing %, 2500, rep 2: 8.69%
TTR on-target site; On-target GCAACTTACCCAGAGGCAAA
  SUM Editing % - Human Primary Hepatocytes, Treat rep 1: 14.17%
  SUM Editing % - Human Primary Hepatocytes, Treat rep 2: 14.29%
TTR on-target site
  on-target site editing efficiency (in words): high editing efficiency
[2]
  off-target editing at candidate off-target sites (in words): little to no off-target editing

B3: GA460: Human/Cyno TTR guide RNA, spacer UAUAGGAAAACCAGUGAGUC, gRNA SEQ ID NO: 14 (nucleic acid)
guide: TATAGGAAAACCAGTGAGTCGTTTTAGAGCTAGAAATAGCAAGTTAAAATAAGGCTAGTCCGTTATCAACTTGAAAAAGTGGCACCGAGTCGGTGCTTTT
modifications: chemistry not given here
Human TTR gene
  Human hepatocytes - Editing %, 625, rep 1: 23.77%
  Human hepatocytes - Editing %, 625, rep 2: 22.27%
  Human hepatocytes - Editing %, 1250, rep 1: 38.33%
  Human hepatocytes - Editing %, 1250, rep 2: 35.8%
  Human hepatocytes - Editing %, 2500, rep 1: 47.61%
  Human hepatocytes - Editing %, 2500, rep 2: 47.79%
  editing activity in human primary hepatocytes (in words): high editing activity
TTR on-target site; On-target TATAGGAAAACCAGTGAGTC
  SUM Editing % - Human Primary Hepatocytes, Treat rep 1: 76.4%
  SUM Editing % - Human Primary Hepatocytes, Treat rep 2: 74.3%
TTR on-target site
  on-target site editing efficiency (in words): high editing efficiency
[2]
  off-target editing at candidate off-target sites (in words): little to no off-target editing
[1]
  Cyno hepatocytes - Editing %, 156.25: 1.62%
  Cyno hepatocytes - Editing %, 312.5: 11.22%
  Cyno hepatocytes - Editing %, 625: 18.44%
  Cyno hepatocytes - Editing %, 1250: 31.71%
  Cyno hepatocytes - Editing %, 2500: 38.25%
  Cyno hepatocytes - Editing %, 5000: 40.16%
  editing activity in cynomolgus primary hepatocytes (in words): high editing activity

B4: GA457: Human TTR guide RNA, spacer GCCAUCCUGCCAAGAAUGAG, gRNA SEQ ID NO: 11 (nucleic acid)
guide: GCCATCCTGCCAAGAATGAGGTTTTAGAGCTAGAAATAGCAAGTTAAAATAAGGCTAGTCCGTTATCAACTTGAAAAAGTGGCACCGAGTCGGTGCTTTT
modifications: chemistry not given here
Human TTR gene
  Human hepatocytes - Editing %, 625, rep 1: 17.24%
  Human hepatocytes - Editing %, 625, rep 2: 15.39%
  Human hepatocytes - Editing %, 1250, rep 1: 26.49%
  Human hepatocytes - Editing %, 1250, rep 2: 24.86%
  Human hepatocytes - Editing %, 2500, rep 1: 33.96%
  Human hepatocytes - Editing %, 2500, rep 2: 31.31%
  editing activity in human primary hepatocytes (in words): high editing activity
TTR on-target site; On-target GCCATCCTGCCAAGAATGAG
  % Editing - human primary hepatocytes, Net: 54.1%
  % Editing - human primary hepatocytes, Treated: 54.21%
TTR on-target site
  on-target site editing efficiency (in words): high editing efficiency
[2]
  off-target editing at candidate off-target sites (in words): little to no editing
[2]; 47 candidate off-target sites, human primary hepatocytes
  net editing at all off-target sites: less than 0.40

B5: GA461: Human/Cyno TTR guide RNA, spacer UACUCACCUCUGCAUGCUCA, gRNA SEQ ID NO: 15 (nucleic acid)
guide: TACTCACCTCTGCATGCTCAGTTTTAGAGCTAGAAATAGCAAGTTAAAATAAGGCTAGTCCGTTATCAACTTGAAAAAGTGGCACCGAGTCGGTGCTTTT
modifications: chemistry not given here
Human TTR gene
  Human hepatocytes - Editing %, 625, rep 1: 21.81%
  Human hepatocytes - Editing %, 625, rep 2: 22.31%
  Human hepatocytes - Editing %, 1250, rep 1: 32.82%
  Human hepatocytes - Editing %, 1250, rep 2: 32.38%
  Human hepatocytes - Editing %, 2500, rep 1: 40.42%
  Human hepatocytes - Editing %, 2500, rep 2: 39.43%
  editing activity in human primary hepatocytes (in words): high editing activity
TTR on-target site; On-target TACTCACCTCTGCATGCTCA
  SUM Editing % - Human Primary Hepatocytes, Treat rep 2: 58.9%
TTR on-target site
  on-target site editing efficiency (in words): high editing efficiency
[2]
  off-target editing at candidate off-target sites (in words): little to no off-target editing
[1]
  Cyno hepatocytes - Editing %, 156.25: 0.07%
  Cyno hepatocytes - Editing %, 312.5: 7.45%
  Cyno hepatocytes - Editing %, 625: 13.16%
  Cyno hepatocytes - Editing %, 1250: 19.46%
  Cyno hepatocytes - Editing %, 2500: 29.8%
  Cyno hepatocytes - Editing %, 5000: 37.53%
  editing activity in cynomolgus primary hepatocytes (in words): high editing activity
